Results on three substances are retold here after article PMC8373112.

This data set deals with RqcH-HTF wild-type (Bacillus subtilis). Kind of data set: EMSA. To be noted: native tRNA modifications, deacylated; EMSA: HEPES:Polymix buffer, 5 mM Mg2+, 0.1 uM tRNA, 1 uM mRNA(MVF) competitor, 37 C 5 min, gel at 4 C; pull-down: HEPES:Polymix pH 7.5, 1 mM DTT, 5 mM MgOAc …. (In general: A gel shift assay detects complexes by their altered migration in electrophoresis.)
Substance tRNAAla yielded a K half of 190 nM.

tRNALys yielded a K half of 310 nM.

Substance tRNAVal yielded a K half of 390 nM.
